Reference: patent US6903077, “Methods and products for delivering nucleic acids” (University of Vermont and State Agricultural College)

Tests used:
[1] = test system: T1, GST-Z1
T1 sequence: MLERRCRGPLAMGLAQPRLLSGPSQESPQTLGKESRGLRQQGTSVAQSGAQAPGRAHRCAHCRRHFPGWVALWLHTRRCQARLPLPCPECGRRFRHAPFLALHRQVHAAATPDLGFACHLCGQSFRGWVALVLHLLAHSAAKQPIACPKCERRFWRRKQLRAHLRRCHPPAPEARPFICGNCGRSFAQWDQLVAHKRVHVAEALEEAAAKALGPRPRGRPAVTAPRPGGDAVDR

[2] = test system: T2, GST-Z2-P123
T2 sequence: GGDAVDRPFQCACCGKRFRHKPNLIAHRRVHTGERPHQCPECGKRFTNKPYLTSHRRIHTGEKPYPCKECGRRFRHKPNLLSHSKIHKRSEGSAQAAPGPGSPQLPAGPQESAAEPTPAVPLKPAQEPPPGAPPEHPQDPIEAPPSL

[3] = test system: T3, GST-Z2
T3 sequence: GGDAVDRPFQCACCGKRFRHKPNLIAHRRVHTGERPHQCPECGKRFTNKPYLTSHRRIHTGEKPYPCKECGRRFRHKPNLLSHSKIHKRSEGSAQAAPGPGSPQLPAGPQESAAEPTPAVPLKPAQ

[4] = test system: T4, GST-Z3
T4 sequence: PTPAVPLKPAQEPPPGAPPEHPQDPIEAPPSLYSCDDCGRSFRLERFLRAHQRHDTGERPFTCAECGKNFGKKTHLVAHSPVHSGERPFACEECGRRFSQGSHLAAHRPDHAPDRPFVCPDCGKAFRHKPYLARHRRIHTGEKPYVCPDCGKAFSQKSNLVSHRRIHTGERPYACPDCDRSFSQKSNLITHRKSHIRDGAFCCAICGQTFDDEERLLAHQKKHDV

[5] = molecular target: T5, GST-Z2 (RIP60 zinc fingers 6-8 plus part of PRR, GST-Z2-P12) (Homo sapiens, UniProt Q9BWE0 SEQ:1-126); assay: competition; no competition at 1000-fold excess; details: tags: GST N-terminal
T5 sequence: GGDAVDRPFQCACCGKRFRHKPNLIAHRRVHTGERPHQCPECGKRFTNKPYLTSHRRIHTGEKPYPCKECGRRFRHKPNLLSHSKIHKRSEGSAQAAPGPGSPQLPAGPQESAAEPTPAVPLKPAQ
Experimental: (§1) Binding reactions were incubated for 20 minutes at 37° C., 15 min on ice, and then resolved on 6% native polyacrylamide gels in 0.25×TBE buffer. Gels were dried, exposed to Kodak XAR film at −80° C., and signals were detected by autoradiography. Competition binding reactions were assembled as described above with the addition of 0.5, 5, or 50 pmole of unlabeled double-stranded competitor DNA to the reactions prior to the addition of protein. For time course competition assays, 60 ul binding reactions were assembled and incubated as above. Following the incubation step on ice, 50 pmole of unlabeled DSR competitor DNA was added to the binding reactions and samples where removed at the indicated time points, loaded on a 6% native PAGE gel, and resolved by electrophoresis at 25V until all samples were loaded. After the final sample was loaded, the voltage was increased to 100V and samples were resolved by electrophoresis for an additional 1.5 hours. Signals on the dried gels were quantified on a phosphoimager (BioRad model GS 525). A value for % probe bound was calculated as a ratio of protein-bound probe to total probe (bound and unbound probe) per sample and values were plotted against time.
(§2) Binding of the GST-Z2 to the DSR probe was stable in the presence of 1000-fold excess of IBF, SV-AT, or Py-AT competitors, but was competed with 100-fold excess of unlabeled DSR DNA. […]

[6] = molecular target: T6, GST-Z1 (RIP60 zinc fingers 1-5) (Homo sapiens, UniProt Q9BWE0 SEQ:1-234); assay: competition; not significantly competing; details: tags: GST N-terminal
T6 chain: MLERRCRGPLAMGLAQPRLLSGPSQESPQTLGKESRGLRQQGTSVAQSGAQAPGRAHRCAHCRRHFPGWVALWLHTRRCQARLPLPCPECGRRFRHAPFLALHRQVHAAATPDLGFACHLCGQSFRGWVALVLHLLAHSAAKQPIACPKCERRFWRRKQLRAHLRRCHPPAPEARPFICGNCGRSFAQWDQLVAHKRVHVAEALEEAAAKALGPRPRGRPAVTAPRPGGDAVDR
Experimental: as §1, §2

[7] = molecular target: T7, GST-Z12 (Homo sapiens, UniProt Q9BWE0 SEQ:1-349); assay: competition; USR competes; details: tags: GST N-terminal
T7 chain: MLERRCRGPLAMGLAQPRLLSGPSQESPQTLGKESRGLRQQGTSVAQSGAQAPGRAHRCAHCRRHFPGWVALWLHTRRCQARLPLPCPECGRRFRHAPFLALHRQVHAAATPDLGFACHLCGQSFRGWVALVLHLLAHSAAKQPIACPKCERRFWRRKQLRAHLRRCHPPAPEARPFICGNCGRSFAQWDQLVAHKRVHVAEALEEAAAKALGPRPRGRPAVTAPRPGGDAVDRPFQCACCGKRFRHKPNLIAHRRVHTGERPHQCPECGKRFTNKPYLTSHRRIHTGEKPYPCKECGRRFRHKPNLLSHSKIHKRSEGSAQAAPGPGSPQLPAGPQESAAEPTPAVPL
Experimental: as §1, §2

[8] = molecular target: T5, GST-Z2 (RIP60 zinc fingers 6-8 plus …); assay: competition; USR competes for binding to DSR; details: tags: GST N-terminal
Experimental: as §1, §2

[9] = molecular target: T6, GST-Z1 (RIP60 zinc fingers 1-5); assay: EMSA; footprinting and gel shift; unstable binding; details: tags: GST N-terminal
[10] = molecular target: T8, GST-Z2-P123 (Homo sapiens, UniProt Q9BWE0 SEQ:1-147); assay: EMSA; multimers; details: tags: GST N-terminal; label: 32P; 5' overhangs
T8 sequence: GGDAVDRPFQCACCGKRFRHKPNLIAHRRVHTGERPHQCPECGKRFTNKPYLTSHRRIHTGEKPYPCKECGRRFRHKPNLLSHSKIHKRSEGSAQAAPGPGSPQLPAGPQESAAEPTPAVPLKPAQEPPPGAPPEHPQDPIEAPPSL

[11] = molecular target: T9, GST-Z2-P1 (Homo sapiens, UniProt Q9BWE0 SEQ:225-337); assay: EMSA; no multimers; details: tags: GST N-terminal; label: 32P; 5' overhangs
T9 sequence: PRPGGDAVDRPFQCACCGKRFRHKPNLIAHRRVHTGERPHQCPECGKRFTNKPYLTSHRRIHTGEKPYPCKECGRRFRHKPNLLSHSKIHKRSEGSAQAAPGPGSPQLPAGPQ

[12] = molecular target: T5, GST-Z2 (RIP60 zinc fingers 6-8 plus …); assay: EMSA; competed by 100-fold DSR; more stable than GST-Z1; details: tags: GST N-terminal; label: 32P; 5' overhangs
Experimental: (§3) A value for % probe bound was calculated as a ratio of protein-bound probe to total probe (bound and unbound probe) per sample and values were plotted against time.
(§4) Binding of the GST-Z2 to the DSR probe was stable in the presence of 1000-fold excess of IBF, SV-AT, or Py-AT competitors, but was competed with 100-fold excess of unlabeled DSR DNA. […] In contrast, binding of GST-Z3 to the DSR probe was eliminated by a 1000-fold excess of all unlabelled competitors tested. […] In a like manner, the USR was also able to compete for binding of these proteins to the DSR.
(§5) To ascertain if Z1 and Z2 show any differences in binding activity, the stability of Z1 and Z2 complexes with the DSR was examined in competition gel shift assays. Identical amounts of GST-Z1 and GST-Z2 were incubated with ^32P-labeled probe for 20 min, and then a 1000-fold molar excess of unlabeled competitor DSR was added. Samples were removed from the binding reactions at various times thereafter and loaded directly onto non-denaturing gels running at low voltage. After all the samples were loaded, the voltage was increased to 100V for 1 hr. After drying the gels, the signals in the shifted complexes were quantified by phosphoimaging.

[13] = molecular target: T6, GST-Z1 (RIP60 zinc fingers 1-5); assay: EMSA; competed by 100-fold DSR; less stable than GST-Z2; details: tags: GST N-terminal; label: 32P; 5' overhangs
Experimental: as §3, §4, §5

[14] = molecular target: T7, GST-Z12; assay: EMSA; specific; details: tags: GST N-terminal; label: 32P; 5' overhangs
Experimental: DSR (50 pmole) was labeled by Klenow fill-in reaction of 5' overhangs in the presence of [α-^32P]-dATP. Other probes were end-labeled with polynucleotide kinase and [γ-^32P]. Binding reactions (30 ul) contained 0.05 pmole labeled DSR probe, 40 mM KCl, 10 mM HEPES (pH 8.0), 4% Ficoll, 33 ng/ul poly dIdC, 1 mM DTT, 16.7 uM ZnCl_2, and 0.5–10 ug of protein. Binding reactions were incubated for 20 minutes at 37° C., 15 min on ice, and then resolved on 6% native polyacrylamide gels in 0.25×TBE buffer. Gels were dried, exposed to Kodak XAR film at −80° C., and signals were detected by autoradiography. Competition binding reactions were assembled as described above with the addition of 0.5, 5, or 50 pmole of unlabeled double-stranded competitor DNA to the reactions prior to the addition of protein. For time course competition assays, 60 ul binding reactions were assembled and incubated as above. […] Signals on the dried gels were quantified on a phosphoimager (BioRad model GS 525). A value for % probe bound was calculated as a ratio of protein-bound probe to total probe (bound and unbound probe) per sample and values were plotted against time. […]

[15] = molecular target: the molecule itself; assay: Gel shift Multimers, self-association on DNA
Experimental: as §1, with “Binding reactions (30 ul) contained 0.05 pmole labeled DSR probe, 40 mM KCl, 10 mM HEPES (pH 8.0), 4% Ficoll, 33 ng/ul poly dIdC, 1 mM DTT, 16.7 uM ZnCl_2, and 0.5–10 ug of protein. Binding” for “Binding”, “time. […]” for “time.”

casein kinase II
phosphorylation in vitro (32P-ATP, SDS gel, autoradiography) [1]: neither GST-Z1 nor GST-Z3 were phosphorylated to any great degree | phosphorylation in vitro (32P-ATP, SDS gel, autoradiography) [2]: Both GST-Z2 and GST-Z2P123 were phosphorylated | phosphorylation in vitro (32P-ATP, SDS gel, autoradiography) [3]: Only the GST-Z2 polypeptide, which contains the casein kinase II phosphorylation domain was phosphorylated | phosphorylation in vitro with and without DNA [3]: GST-Z2 polypeptide was phosphorylated by casein kinase II in the absence of DNA. However, the extent of phosphorylation increased in the presence of the double stranded DRS oligo, the linearized plasmid pCH127 and the supercoiled pCH127 | phosphorylation in vitro (32P-ATP, SDS gel, autoradiography) [4]: neither GST-Z1 nor GST-Z3 were phosphorylated to any great degree

B1: Py-AT (OCH37/OCH38) (dsDNA)
DNA 1: CTGTTTTTTTTAGTATTAAGC
DNA 2: GCTTAATACTAAAAAAAACAG
binding result [5]: no binding

B2: IBF (OCH13/OCH14) (dsDNA)
DNA 1: GATCCGGGAAGGCGGGCGCTGGGGGCGCTGCGGCGCTGCGCTCCACCT
DNA 2: GATCTAGGTGGAGCGCAGCGCCGCAGCGCCCCCAGCGCCCGCCTTCCCG
binding result [5]: no binding | binding result [6]: no binding

B3: USR (OCH39/OCH40) (dsDNA)
DNA 1: GATCTTAACAGTAATAATAAATATCT
DNA 2: GATCAGATATTTATTATTACTGTTAA
binding result [7]: binds | binding result [8]: binds | binding result [9]: binds

B4: DSR (OCH7/OCH8) (dsDNA)
DNA 1: GATCTTTTATTATTATTATTAGTTCG
DNA 2: GATCCGAACTAATAATAATAATAAAA
binding result [10]: binds | binding result [11]: binds | binding result [12]: binds | binding result [13]: binds | binding result [14]: binds

B5: GST-Z2 (other)
chain: GGDAVDRPFQCACCGKRFRHKPNLIAHRRVHTGERPHQCPECGKRFTNKPYLTSHRRIHTGEKPYPCKECGRRFRHKPNLLSHSKIHKRSEGSAQAAPGPGSPQLPAGPQESAAEPTPAVPLKPAQ
notes: also called GST-Z2(P12); GST-Z2-P12; not shown: glutathione-S-transferase (GST) purification tag, 26 kD, encoded by pGEX-2T (Pharmacia Biotech), at the amino terminus
binding result [15]: binds
